Data from the nanobody polyreactivity screen of Harvey et al. (2022).

Assay: yeast display, Sf9 membrane polyspecificity reagent, FACS + sequencing; frameworks hold sequencing errors
Summary of the method: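 Using colony PCR, genes from sorted yeast display clones were amplified, then sequenced on MiSeq at 2 × 250 and filtered by CDR length. The clones had been stained with 10% biotinylated, detergent-solubilized Sf9 membrane reagent for 1 hour at 4 °C and sorted by FACS into low and high (top ~1%) gates on anti-HA and streptavidin fluorescence. Polyreactivity labels come from the gate of origin.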

Sequence	polyreactivity (PSR sort gate)
QVQLVESGGGLVQAGGSLRLSCAASGITFRSYAMGWYRQAPGKERELVATISWSGGITYYADSVKGRFTISRDNAKNTVYLQMNSLKPEDTAFYYCAKASQSWGRVDYYYWGLGTQVTVSS	low polyreactivity
QVQLVESGGGLVQAGGTIRISSAPSGRTLGCNAMGRSRQAPGKEWELVSAISYSGGDTTYADSVKGRFTISRDKAKNTVYLQMNSLKPEDTAVYYCAARGDYYVYAYNRRFVYLGQGTQVTVSS	low polyreactivity
QVQLVESGGGLVQAGGSLRLSCAASGRIFDFNAMGWYRQAPGKEREFVAAIRTSGGDSTYYADSVKGRFTISRDNAKNTVYLQMNSLKPEDTAVYYCAKTVWWYYRYPFDYWGQGTQVTVSS	low polyreactivity
QVQLVESGGGLVQAGGSLRLSCAASGITFRYYAMGWYRQAPGKERELVAGISGRGGSTYYADSVKGRFTISRDNAKNTVYLQLNSLKPEDTAVYYCAKDRLWYRGYRWGYYYWGQGTQVTVSS	high polyreactivity
QVQLVESGAGIVQAGGSLRLSCAASGSIFRVYAMGWYRQAPWKERELVAAISRTGGSTYYADSVKGRFTISRDNAKNTVYLPMNSLQPEDTAVDYCAARQRYVGYYYWGQGTQVTVSS	high polyreactivity
QVQLVESGGGLVQAGGSLRLSCAASGFTFRDYAMGWYRQAPGKERELVAAISRSGDSTYYADSVKGRFTISRDNAKNTVYLQMNSLKPEDTAVYDYAAKRRYTTYDYWGQGTQVTVSS	high polyreactivity
QVQLVESGGGLVQAGGSLRLSCAASGRTFYGYAMGWYRQAPGKERELVAAISRRGGSTNYADSVKGRFTISRDNAKNSVYLQMNSLKPEDSAVYYCNANYYRTHYDYWGQGTQVTVSS	high polyreactivity
QVQLVESGGGLVQAGGSLRLSCAASGSTFTYNTMGWYRQAPGKERELVAAISSGGSTYYADSVKGRFTISRDNAKNTVYLQMNSLKPEDTAVYYCAATAQKDSRYGSRYYYWGQGTQVTVSS	high polyreactivity
QVQLVESGGGLVQAGCSLRLSCAASGRIFSRYTMGWSRQAPGKERELVAAISSGGSTYYADSVKGRFTISLDNAKNTVYFQMNSLKPEDTAVYYCNTRYVGQRSTWVDQVRRYDYCGQGTQVTVSS	high polyreactivity
QVQLVESGGGLVQAGGSLRLTCAASGRTFLLYAMGWYRQAPGKERELVAAITSRSGRTYYADSVKGRFTISRDNAKNTVYLQMNSLKPEDTAVYYCAAQGYAPQEYEYWGQGTQVTVSS	high polyreactivity
KVQLVESGGCLVQAGGSLSLSCAASGSIFAVYAMGWYRQAPGKERELVAAITLSGGSTYAYSVKGRFTISRDNAKNTFYLQMKSLKPEDTAVYYCNAVSANYDYVDYEYWGQGTQVNVSS	low polyreactivity
QVQLVESGGGIVQAGGSLRLSCAASGNILFSYAMGWYRQAPGKERELVAAISRSGGSTYYADSVKGRFTISRDNAKNTVYLQMNSLKPEDTAVYYCNAGVYYSYSVTEDYWGQGTQVTVSS	high polyreactivity
QVQLVESGGGLVQAGGSLRLSCAASGIIFVGYAMGWYRQAPGKERELVAAISSGGSTNYADSVKGRFTISRDNAKNTVYLQMNSLKPEDTAVYYCATDSGDGEGDYWGQGTQVTVSS	low polyreactivity
QVQLVESGGGLVQAGGSLSLSCAASGSIFYYYAMGWYRKAPGKERELVASIRSGGSTNYADSVKGRFTISRDNAKNTVYLQKNSLKPEDTAVYYCAARKFYASSLRYGYWGQCTQVTVSS	high polyreactivity
QVQLVESGGGLVQAGGSLRLSCAASGPTLHAYTMGWYRQAPGKERELVAAITRGGGNTYYADSVKGRFTISRDNAKNTVYLQMNSLKPEDTAVYYCNADVSGYLWYEYDYWGQGTQVTVSS	low polyreactivity
QVQLVESGGGLVQAGGSLRLSCAASGSIFDVYTRGWYRQAPGKQRELVAAINTGGGSTYYADSEKGRFTISRDIAKNTVYLQMNSLKPEDTAVYYCAASVYHYGPLYYWGQVTQVTVSS	low polyreactivity
QVQLVESGGGLVQAGGSLRLSCAASGSTFLTNAMGWYRQAPGKERELVAAIRTSGGSTYYADSVKGRFTISRDNAKNTVYLQMNSLKPEDTAVYYCAASYRRRRFSEYYYWGQGTQVTVSS	high polyreactivity
QDQLVESGGGLVQAGCSLRLSCAASGRTFTYYAMGWYRQAPGKERELVAALSKRGGTTYYADSVKVRFSMSRDNAKNTDYLKMNSLKAVDTAVYYCATEGNLRTAGYAYDHYYWGQGTQVTVSS	high polyreactivity
QVQLVESGGGLVQAGGSLRLSSAASGSIFERYTMAWYRLAPGKERELVAVISTGGGSTNYADSVKGRFTFSRDNAKNTVYLQMNSLKPADTAVYYCAASYGYYRYGYWGQGTQVNVSS	high polyreactivity
QVQLVESGGGLVQAGGSLRLSCAASGSIIRRYAMGWYRQAPGKERELVAAISSGGSTYYADSVKGRFTISRDNAKNTVYLEMNSLKPVDTAVYYCAAAQRVSWLFGYWGQGTQVTVSS	high polyreactivity
QVQLVESGGGLVQAGGSLRLSCAASGITFEYYTMGWYRQAPGKERELVAAITQGGGTTYYADSVKGRFTISRDNAKNTVYLQMNSLKPEDTAVYYCAAYVGYLLLYYPTYYYWGQGTQVTVSS	low polyreactivity
QVHLVESGGGLVQAGVSLRLSCAASGSTFRRNAMGWYRQEPGKERELVAAISTSGGTTYYADSVKGRFTISRDNAKNTVYLEMNSLKPEDTAVYYCNADVYVWNYKYYSSGQGTQVTVSS	high polyreactivity

Sequence	polyreactivity (PSR sort gate)
QVQLVESGGGLVQAGGSLRLSCAASGRTFWKYVMGWYRQAPGKERELVAVISRPAGSTYYADSVKGRFTISRDNAKNTVYLQMNSLKPEDTAVYYCAKRPKNKPVLGDYDHWGQGTQVTVSS	low polyreactivity
QVQLVESGGGLVQAGGSLRLSCAASGIILYYYAMGWYRQAPGKERELVAAINWSGGSTSYADSVKGRFTISRDNAKNTVYLQMNSLKPEDTAVYYCAARLGSWHYQVWNDKYEYWGQGTQVTVSS	high polyreactivity
QVQLVESGGGLVQAGGSLRLSCAATGITFVYNAMGWYRQAPGKERELVAAISWSGTSTYYADSVKGRFTISRDNAKNTVYLQMNSLKPEDTAVYDCSAQSGYPPYGYYYWGQGTQVTVSS	low polyreactivity
QDQLVESGVGLVQAGGSLRLSCAASGRILGRNAMGWYRQAPGKERELVAAISSGVSTNYADSVKGRFTISRANAKNTVYLQMNSLKPEDTAVYYWGQGTQVTVSS	low polyreactivity
QVQLVESGGGLVQAGGSLRLSCAASGNIFSSNAMGWYRHAPGKEREVVAAITRSGGSTYYADSVKGRFTISRDNAKNTVYLQMNSLKPEDTAVYYCAAGKPRSKYWYDYWGQGTQVTVSS	high polyreactivity
QVQLVESGGGLVQAGGSLRLSCAASGSTFPIYAMGWYRQAPGKERELVAAITHRDGSTYYADSVKGRFTISRDNAKNTVYLQMNSLKPEDTAVYYCAAETYVVWFTFDYWGQGTQVTVSS	high polyreactivity
QVQLVESGAGLVQAGGSLRFSCAASGFIFVDNTMGWSSQAPGKEMELVAAISYSAGSTYYADSVKGRFTISRDNAMNTVYLQMNCLKPEDTAVYDCAAQHSWVTSYLYSYDYWGQGTQVTVSS	low polyreactivity
QVQLVESGGGLVQAGGSLRVSCAASGLTLPPYAMGWDRQAPGKERELVAAITSGGSTNYADSVKGRFTISRDKAKNTVYLQLNSLKPEDTAVYYCAAVGRHYYVKFDFWGQGTHVTVSS	low polyreactivity
QVQLVESGAGLVQAGGSLRISCAASGSTFDGNDIGWYRQAPGKERELVAAITIGGGSTYYADSVKGRFTISRDNAKNTVYLQMNSLKPEDTAVYYCAKDDHTGVHTYPGDYWGQGTQVTVSS	low polyreactivity
QVQLVESGGGLVQAGGSLRLTCAASGRIFGYYVMGWYRQAPGKERELVAAIRSSADSTYYADSVKGRFTISRDNAKNTVYLQMNSLKPEDTAVYYCNADTTGYWSYGFQYYGEDYWGQGTQVTVSS	low polyreactivity
QVQLVESGGGLVQAGGSLRLSCAASGSTFYYNSMGWYRQAHGKERQLVAAISKSSTRTYYADSVKGRFTISRDNAQNTVYLQMNSLKPEDTAVYYCAARQWRRSRFDYWGQGTQVNVSS	high polyreactivity
QVQLVESGGGLVQAGGSRRLSCAASGITFSRYAMGWYRQAPGKERELVAAITSSGGSTYYADSVKGRFTISRDNAKNTVYLQMNSLKPEDTAVYYCAATSYYTREQYYYWGQGTQVTVSS	high polyreactivity
QVQLVESGGGLVQAGGSLRLSCAASGRIFRGYAMGWYRQAPWKERELVAAISRSGGSTYYADSVKGRFTISRDNAKNTVYLQMNSLKPVDTAVYYCAAYTYSAGGYWGQGSQVTVSS	high polyreactivity
QDQLVESGGGLVQAGGSLRLSCAASGFTFNWKDMGWYRQAPGKERELVAAISGGASTYYADSVKGRFTISRDNAKNTVYLQMNSLKPEDTAVYYCAADLDEWGYLFDYWGQGTQVTVSS	low polyreactivity
QVQLVESGGGLVQAGGSLRLSCAASGSTFYVYAMGWYRQAPGKVREFVATISTSGAITYYADSVKGRFTISRDNAKNTVYLQMNSQKPEDTAVYYCARSGSLLSQVWYNYWGQGTQVTVTS	low polyreactivity
QVQLVESGGGLVQAGGSLRISSAASGRTFQTNVMGWYRQAPGKERELVAAISKTGGRTYYADSVKGRFTISRDNAKNTVYLQMNSLNPEDTAVYYCAADSSGYEDYDYWGQGTQVTVSS	high polyreactivity
QVQHVESGGGLVQAGGSLRLSCAASGRTFISNAMGWYRQAPGKERELVATINSGGSTNYADSVKGRFTISRDNAKNTVYLQMNSLKPEDTAVYYCARRVRYKHYDYWGQGTQLTVSS	high polyreactivity
QVQLVESGGGLVQAGGSLRLSCAASGGIFAPNAMGWYRQAPGKEREFVAAISTGGGSTRYADSVKGRFTISRDNAKNTVYLQMNSLKPEDTAVYYCAAELWYTWLGSPYDYWGQGTQVTVSS	low polyreactivity
QVQLVESGGCLVQAGGSLRLSSAASGSTFQNYAMGWYRQATGKERELVAAISSGGRTYYADSVKGRFTISRDNAKNTVYLQMYSLKPEDTAVYYCAVRYRVYKFQYGYWGQGTQVTVSS	high polyreactivity
QVQIVESGGGLVQARGSLRLSCAASGFIFGSYASGWYRQAPGKERELVAAISWNGDSTYYADSVKGRFTISRDNAKITVYLQMNSLKPEDTAVYYCNAVDVFLYQTDGLGDYWGQGTQVTVSS	low polyreactivity
QVQLVESGGGLVQAGGSLRLSCAASGSTFVNNAMGWYRQAPGKERELVAAIRSSDGRTYYADSVKGRFTISRDNAKNTVYLLMNSLKPEDTAGYYCNAGYWRFIDSYDYWGQGTQVTVSS	high polyreactivity
